Source: publication PMC6392501

How the values were obtained:
[1] = target: C-terminal coiled-coil of hTMEM266 (residues 224–289) (human) (UniProt Q2M3C6); assay: non-reducing SDS-PAGE; purified coiled-coil run on SDS-PAGE with or without 2-ME; single species (monomer) with 2-ME, additional band at ~15 kDa without
[2] = target: C-terminal twin-Strep-tagged hTMEM266 (human) (UniProt Q2M3C6); assay: cross-linking; DSS (varying concentration) applied to intact HEK 293T cells expressing Strep-tagged hTMEM266; membrane fractions on SDS-PAGE; Western blot with anti-Strep antibody
[3] = target: C-terminal twin-Strep-tagged hTMEM266 (human) (UniProt Q2M3C6); assay: cross-linking; air oxidation (disulfide) of membrane fractions of HEK 293T cells expressing Strep-tagged hTMEM266; 10 mM NEM; SDS-PAGE with or without 2-ME; Western blot with anti-Strep antibody

stoichiometry N [1] | stoichiometry N [2] | stoichiometry N [3] | Substance
2 | – | – | C-terminal coiled-coil of hTMEM266 (residues 224–289) (from UniProt Q2M3C6 224-289) (domain or fragment)
– | 2 | 2 | C-terminal twin-Strep-tagged hTMEM266 (from UniProt Q2M3C6 1-523) (natural protein)
